We go through 1 molecule from article PMC6385590 (European journal of immunology, 2015).

The assay deals with T1, interferon regulatory factor 8 (IRF8) (human (endogenous in CAL-1 and primary …, UniProt Q02556 1-426)).
T1 sequence (looked up): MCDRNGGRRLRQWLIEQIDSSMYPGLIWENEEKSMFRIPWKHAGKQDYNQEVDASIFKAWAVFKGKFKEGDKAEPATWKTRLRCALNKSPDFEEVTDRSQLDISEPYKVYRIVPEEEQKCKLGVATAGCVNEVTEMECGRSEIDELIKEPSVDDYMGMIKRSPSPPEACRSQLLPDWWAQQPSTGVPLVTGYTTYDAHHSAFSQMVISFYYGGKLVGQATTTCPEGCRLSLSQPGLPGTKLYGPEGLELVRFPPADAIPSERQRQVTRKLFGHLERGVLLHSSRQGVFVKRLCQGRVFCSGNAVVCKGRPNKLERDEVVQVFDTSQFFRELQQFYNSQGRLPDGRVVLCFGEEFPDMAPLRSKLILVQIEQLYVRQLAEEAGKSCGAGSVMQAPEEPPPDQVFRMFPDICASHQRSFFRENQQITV
The experiment in a line: proximity ligation.

B1: interferon regulatory factor 5 (IRF5) (natural protein, UniProt Q13568 1-498, looked up)
chain: MNQSIPVAPTPPRRVRLKPWLVAQVNSCQYPGLQWVNGEKKLFCIPWRHATRHGPSQDGDNTIFKAWAKETGKYTEGVDEADPAKWKANLRCALNKSRDFRLIYDGPRDMPPQPYKIYEVCSNGPAPTDSQPPEDYSFGAGEEEEEEEELQRMLPSLSLTEDVKWPPTLQPPTLRPPTLQPPTLQPPVVLGPPAPDPSPLAPPPGNPAGFRELLSEVLEPGPLPASLPPAGEQLLPDLLISPHMLPLTDLEIKFQYRGRPPRALTISNPHGCRLFYSQLEATQEQVELFGPISLEQVRFPSPEDIPSDKQRFYTNQLLDVLDRGLILQLQGQDLYAIRLCQCKVFWSGPCASAHDSCPNPIQREVKTKLFSLEHFLNELILFQKGQTNTPPPFEIFFCFGEEWPDRKPREKKLITVQVVPVAARLLLEMFSGELSWSADSIRLQISNPDLKDRMVEQFKELHHIWQSQQRLQPVAQAPPGAGLGVGQGPWPMHPAGMQ
For the molecule B1, the “fold of nuclear PLA colocalization over unstimulated cells (after 1 h CpG ODN)” value is > 3 fold.
